Consider three substances from publication PMC6079037.

Assay [1] addresses HmTSPcc, 25aa synthetic peptide corresponding to HmTSP residues 249-273 (Hydra magnipapillata). The assay can be described thus: AUC; sedimentation equilibrium; HmTSPcc 400 uM in PBS, 20 °C, 30,000-46,000 rpm; fitted to a single, ideal species model.
For assay [2], the target named is NoHmTSP.V5, truncated HmTSP comprising the N-terminal domain plus the putative oligomerization region (aa 1-296) (Hydra magnipapillata). The experiment in a line: non-reducing SDS-PAGE and immunoblot; V5-tagged proteins from conditioned media of transfected COS7 cells, collected on Talon resin, boiled in SDS sample buffer without DTT; 7% SDS-polyacrylamide gels; V5 antibody blot. A general note: Immunoblotting shows a protein as a band on a membrane.

Assay [3] has as its target full-length HmTSP-His (Hydra magnipapillata thrombospondin) (Hydra magnipapillata). The experiment in a line: non-reducing SDS-PAGE and immunoblot; HmTSP-His from lysates of transfected HEK293T cells, collected on Ni-NTA, eluted in non-reducing SDS sample buffer; 4-20% gradient gels; anti-penta-His blot; laminin chains and prestained markers as size references.

“And” between values parts separate entries of the source, which are not always exact repeats. Equal entries are not always repeated. Where only a bound is given, the exact number is not on record here.

In general, stoichiometry N refers to the number of molecules, sites or subunits per partner or assembly.

With “HmTSPcc, 25aa synthetic peptide corresponding to HmTSP residues 249-273”, the stoichiometry N (x monomer mass) in assay [1] was determined as 2.98.
Regarding “NoHmTSP.V5, truncated HmTSP comprising the N-terminal domain plus the putative oligomerization region (aa 1-296) (domain or fragment)”, the stoichiometry N in assay [2] is 5 and 4.
As to “full-length HmTSP-His (Hydra magnipapillata thrombospondin) (natural protein)”, the stoichiometry N in assay [3] was more than 4.
